These results are taken from patent US20180172684A1.

Assay [1] has as its target P30 protein of Mycoplasma pneumoniae as present in Mycoplasma pneumoniae analytes (deactivated Mycoplasma pneumoniae Antigen (FH), Meridian; pharyngeal swabs of infected subjects) (Mycoplasma pneumoniae) (UniProt P75330). The assay can be described thus: immunochromatography sandwich (Ex. 1), label P30(a), detection P30(a); pharyngeal swab Subject 2, diluted 20 times.
The target of assay [2] is full-length protein mycoplasma pneumonia P30 (amino acids 1-274; SEQ ID NO: 1) (Mycoplasma pneumoniae) (UniProt P75330). Put plainly: ELISA, full-length P30 coated, 5 ug/mL P30(a), no peptide (0 point of the peptide 2 series). A general note: In an ELISA, binding on a coated surface is turned into a signal by an enzyme label.
The target of assay [3] is P30 protein of Mycoplasma pneumoniae as present in Mycoplasma pneumoniae analytes (deactivated Mycoplasma pneumoniae Antigen (FH), Meridian; pharyngeal swabs of infected subjects) (Mycoplasma pneumoniae) (UniProt P75330). Put plainly: immunochromatography sandwich (Ex. 2), label P30(a), detection P30(a); deactivated Mycoplasma pneumoniae (FH); Triton X-100/Tween 20 diluent.

For assay [4] the target is unchanged. The assay can be described thus: immunochromatography sandwich (Ex. 2), label P30(a), detection P30(a); pharyngeal swab Subject 2; Triton X-100/Tween 20 diluent.
The target of assay [5] is mycoplasma pneumonia P30 (purified protein P30Ag produced by expressing amino acids 96-274 with Escherichia coli) (Mycoplasma pneumoniae) (UniProt P75330). Put plainly: immunochromatography sandwich, P30(a)-gold label and P30(a) detection line, P30Ag 10 pg/mL, no peptide.
The target of assay [6] is P30 protein of Mycoplasma pneumoniae as present in Mycoplasma pneumoniae analytes (deactivated Mycoplasma pneumoniae Antigen (FH), Meridian; pharyngeal swabs of infected subjects) (Mycoplasma pneumoniae) (UniProt P75330). The assay can be described thus: immunochromatography sandwich (Ex. 1), label P30(a), detection P30(a); deactivated Mycoplasma pneumoniae (FH); NP-40/MN-811 diluent.

Assay [7] addresses full-length protein mycoplasma pneumonia P30 (amino acids 1-274; SEQ ID NO: 1) (Mycoplasma pneumoniae) (UniProt P75330). Put plainly: ELISA, full-length P30 coated, 5 ug/mL P30(a), no peptide (0 point of the peptide 1 series).
For assay [8], the target named is mycoplasma pneumonia P30 (purified protein P30Ag produced by expressing amino acids 96-274 with Escherichia coli) (Mycoplasma pneumoniae) (UniProt P75330). The assay can be described thus: ELISA, P30Ag coated at 4 ng/mL, antibody 5 ug/mL, anti-mouse IgG-peroxidase.
The target of assay [9] is P30 protein of Mycoplasma pneumoniae as present in Mycoplasma pneumoniae analytes (deactivated Mycoplasma pneumoniae Antigen (FH), Meridian; pharyngeal swabs of infected subjects) (Mycoplasma pneumoniae) (UniProt P75330). Put plainly: immunochromatography sandwich (Ex. 1), label P30(a), detection P30(a); pharyngeal swab Subject 1, diluted 20 times.
Assay [10] shares this target. The assay can be described thus: immunochromatography sandwich (Ex. 2), label P30(a), detection P30(a); pharyngeal swab Subject 1; Triton X-100/Tween 20 diluent.
Assay [11] deals with mycoplasma pneumonia P30 (purified protein P30Ag produced by expressing amino acids 96-274 with Escherichia coli) (Mycoplasma pneumoniae) (UniProt P75330). The assay can be described thus: immunochromatography sandwich (Ex. 3), label P30(a), detection P30(a); analyte P30Ag; Triton X-100/Tween 20 diluent.
For assay [12], the target named is antibody P30(b) (Fucal Research product Mp-P30-9-AB). Put plainly: competitive inhibition ELISA, full-length P30 coated, 5 ug/mL P30(b) + peptide 2 at x40 the antibody concentration.
Assay [13] has as its target antibody P30(a) (Fucal Research product Mp-P30-3-AB). The assay can be described thus: competitive inhibition ELISA, full-length P30 coated at 4 ng/mL, 5 ug/mL P30(a) + peptide 2 at 40 times the antibody amount.
The target in assay [14] is antibody P30(b) (Fucal Research product Mp-P30-9-AB). The assay can be described thus: competitive inhibition ELISA, full-length P30 coated, 5 ug/mL P30(b) + peptide 2 at x160 the antibody concentration.
Assay [15] has as its target antibody P30(a) (Fucal Research product Mp-P30-3-AB). The assay can be described thus: competitive inhibition ELISA, full-length P30 coated, 5 ug/mL P30(a) + peptide 2 at x20 the antibody concentration.
In assay [16] the target is antibody P30(b) (Fucal Research product Mp-P30-9-AB). The assay can be described thus: competitive inhibition ELISA, full-length P30 coated at 10 ng/mL, 5 ug/mL P30(b) + peptide 2 at 40 times the antibody amount.
Assay [17] addresses antibody P30(a) (Fucal Research product Mp-P30-3-AB). Put plainly: immunochromatography competition, 400 ng peptide 2 developed with P30Ag 10 pg/mL, P30(a) label and detection.
For assay [18] the target is unchanged. Put plainly: competitive inhibition ELISA, full-length P30 coated, 5 ug/mL P30(a) + peptide 2 at x640 the antibody concentration.
Assay [19] has the same target. Put plainly: competitive inhibition ELISA, full-length P30 coated, 5 ug/mL P30(a) + peptide 2 at x320 the antibody concentration.
In assay [20] the target is antibody P30(b) (Fucal Research product Mp-P30-9-AB). Put plainly: competitive inhibition ELISA, full-length P30 coated, 5 ug/mL P30(b) + peptide 2 at x10 the antibody concentration.
Assay [21] deals with antibody P30(a) (Fucal Research product Mp-P30-3-AB). The assay can be described thus: competitive inhibition ELISA, full-length P30 coated, 5 ug/mL P30(a) + peptide 2 at x1 the antibody concentration.
The target of assay [22] is antibody P30(b) (Fucal Research product Mp-P30-9-AB). Put plainly: competitive inhibition ELISA, full-length P30 coated, 5 ug/mL P30(b) + peptide 2 at x80 the antibody concentration.
Assay [23] addresses antibody P30(a) (Fucal Research product Mp-P30-3-AB). Put plainly: competitive inhibition ELISA, full-length P30 coated, 5 ug/mL P30(a) + peptide 2 at x80 the antibody concentration.
Assay [24] has the same target. The assay can be described thus: competitive inhibition ELISA, full-length P30 coated, 5 ug/mL P30(a) + peptide 2 at x160 the antibody concentration.
For assay [25], the target named is antibody P30(b) (Fucal Research product Mp-P30-9-AB). Put plainly: immunochromatography competition, 400 ng peptide 2 developed with P30Ag 10 pg/mL, P30(b) label and detection.
For assay [26] the target is unchanged. Put plainly: competitive inhibition ELISA, full-length P30 coated, 5 ug/mL P30(b) + peptide 2 at x640 the antibody concentration.
Assay [27] deals with antibody P30(a) (Fucal Research product Mp-P30-3-AB). Put plainly: competitive inhibition ELISA, full-length P30 coated, 5 ug/mL P30(a) + peptide 2 at x10 the antibody concentration.
Assay [28] shares this target. The assay can be described thus: competitive inhibition ELISA, full-length P30 coated, 5 ug/mL P30(a) + peptide 2 at x40 the antibody concentration.
Assay [29] has as its target antibody P30(b) (Fucal Research product Mp-P30-9-AB). The assay can be described thus: competitive inhibition ELISA, full-length P30 coated, 5 ug/mL P30(b) + peptide 2 at x320 the antibody concentration.
For assay [30] the target is unchanged. Put plainly: competitive inhibition ELISA, full-length P30 coated, 5 ug/mL P30(b) + peptide 2 at x1 the antibody concentration.
Assay [31] has the same target. The assay can be described thus: competitive inhibition ELISA, full-length P30 coated, 5 ug/mL P30(b) + peptide 2 at x20 the antibody concentration.

Some results are limits rather than exact numbers.

Take “antibody P30(a) (Fucal Research product Mp-P30-3-AB)”: the Color intensity (mAbs) in assay [1] came to 28.7 mAbs; in assay [3], 490 mAbs; in [4], 51.7 mAbs; in [6], 273 mAbs; in assay [9], 41.8 mAbs; in assay [10], 117 mAbs. Moreover, the Color intensity (mAbs) in assay [11] stood at 180 mAbs. The Color intensity (Abs) in assay [2] and in assay [7] was 0.411 Abs in each case. The Color intensity after 15 min in [5] is 251 mAbs. The absorbance at 450 nm after subtracting the blank in [8] was determined as 0.403 Abs.

As for PGMAPRPGFPPQPGMAPR [Peptide 2 (SEQ ID NO: 7: …)], the Color intensity (Abs) in [12] amounted to 0.163 Abs; in assay [14] it was 0.125 Abs; in assay [15] it was 0.29 Abs; in assay [18], 0.18 Abs; in assay [19], 0.16 Abs; in assay [20], 0.184 Abs. The Color intensity (Abs) in assay [21] came to 0.401 Abs; in assay [22] it was 0.133 Abs; in assay [23] it was 0.199 Abs; in assay [24], 0.172 Abs; in assay [26], 0.114 Abs; in [27] it was 0.341 Abs. The Color intensity (Abs) in [28] was 0.26 Abs; in assay [29] it was 0.11 Abs; in assay [30], 0.199 Abs; in assay [31], 0.186 Abs. The Percentage reduction of color intensity (%) was found to be 22% in assay [12]; 40% in assay [14]; 29% in assay [15]; 56% in [18]; 61% in assay [19]; 12% in assay [20]. For the same molecule, the Percentage reduction of color intensity (%) turned out to be 2% in [21]; 36% in assay [22]; 52% in assay [23]; 58% in assay [24]; 45% in [26]; 17% in assay [27]. Further, the Percentage reduction of color intensity (%) in [28] was found to be 37%; in assay [29], 47%; in assay [30], 4%; in assay [31] it was 11%. In addition, the percentage reduction of absorbance in [13] is more than 30%; in assay [16] it was 22%. Moreover, the Color intensity after 15 min in assay [17] stood at 96.7 mAbs; in [25], 31.3 mAbs.
